Numbering of substitutions follows the chain as printed.

Sequences and labels used below:
B1: murine anti-human MASP-2 monoclonal antibody 120 (antibody, V domains shown)
VH: DVQLQESGPGLVKPSQSLSLTCTVTGYSITSDYAWSWIRQFLRNKLEWMGYISYSGRTSYNPSLKSRISITRDTSKNQFFLQLNSVTTEDTATYFCARLITGGDYWGQGTSVTVSS
VL: DIVMTQSQKFMSTSVGDRVSVTCKASQNVGINVVWYQQKPGQSPKALIYSASYRFSGVPDRFTGSGSGTDFTLTISNVQSEDLAEYLCLQYDINPLTFGAGTKLELK
B2: murine anti-human MASP-2 monoclonal antibody 124 (antibody, V domains shown)
VH: DVQLQESGPGLVKPSQSLSLTCTVTGYSITSDYAWNWIRQFPGNKLEWMGYISYSGRTSYNPSLKSRLSITRDTSKNQFFLQLTSVTTEDTATYYCARHYGDFWGQGTTLTVSS
VL: DIVMTQSQKFMSTSVGDRVSVTCKASQNVDTNVAWFQQKPGQSPKPLIYSASYRYSGVPDRFTGSGSGTDFTLTISNVQSEDLANYFCQQYNSYPSTFGSGTKLEIK
B3: murine anti-human MASP-2 monoclonal antibody 115 (antibody, V domains shown)
VH: DVQLVESGGGLVQPGGSRKLSCAASGFTFSSFGMHWVRQAPEKGLEWVAYISSGSSSFFYADTVKGRFTISRDNPKNTLFLQMTSLRSEDTAMYYCARGDRNFDVWGAGTTVTVSS
VL: DIVLTQSPASLAVSLGQRATISCRASQSVTSSRYSYMHWFQQKPGQPPNLLIKHASNLESGVPARFSGSGSGTDFTLNIHPVEEDDTATYYCQHSWEVPWTFGGGTKLEIK
B4: murine anti-human MASP-2 monoclonal antibody 126 (antibody, V domains shown)
VH: B3 VH with A23V, F58S, A61V, D104E
VL: B3 VL with T30S, D85E, H94Q
B5: murine anti-human MASP-2 monoclonal antibody 136 (antibody, V domains shown)
VH: QVQLQQSGAELAKPGASVKMSCKASGNTFTNYWMHWIKQRPGQGLEWVGYINPNTGYTDFNQKFKDKATLTADKSSTTAYMQLISLTSEDSTVYYCTLQLGRNFDYWGQGTTLTVSS
VL: DIVLTQSPASLGVSLGQRATISCRASQSVSSSRSTYIHWYQQKPGQPPKLLIKYSSNLESGVPARFSGGGSGTDFTLNIHPVEAEDTATYYCHQSWEIPYTFGGGTKLEIR
B6: murine anti-human MASP-2 monoclonal antibody 60 (antibody, V domains shown)
VH: QVQLQQSGAELMKPGASVKISCKATGYPFSTYWIEWVKQRPGHGLEWIGEILPGSDNTNYNEKFKGKATFTADTSSNTAYMQLSSLTSEDSAVYYCARRTTATRAWFVYWGQGTLVTVSA
VL: DIVMSQSPSSLAVSVGEKVTMSCKSSQSLLYSSNQKNYLAWYQQKPGQSPKLLIYWASTRESGVPDRFTGSGSGTDFTLTISSVRAEDLAVYYCQHYYTYPWTFGGGTNLEIK
B7: murine anti-human MASP-2 monoclonal antibody 100 (antibody, V domains shown)
VH: DVQLVESGGGLVQPGGSRKLSCAASGFTFSNFGIHWVRQAPEKGLEWVAYISSGGSAVFYADTVKGRFTISRDNSKNTLFLQMTSLRSEDTAIYYCAKSDRYFDYWGQGTTLTVSS
VL: B3 VL with T30S, R33S, S35R, M37I, F40Y, N49R, H54Y, D85E, V98T
B8: humanized anti-human MASP-2 monoclonal antibody 126-Hu (antibody, human IgG4 S228P, kappa, V domains shown)
VH: QVQLVESGGGVVQPGRSLRLSCAASGFTFSSFGMHWVRQAPGKGLEWVAYISSGSSSSFYVDTVKGRFTISRDNSKNTLYLQMNSLRAEDTAVYYCARGDRNFEVWGQGTTVTVSS
VL: DIQMTQSPSSLSASVGDRVTITCRASQSVSSSRYSYMHWFQQKPGKAPKLLIYHASNLESGVPSRFSGSGSGTDFTLTISSLQPEDFATYYCQQSWEVPWTFGQGTKLEIKR
B9: humanized anti-human MASP-2 monoclonal antibody 136-Hu (antibody, human IgG4 S228P, kappa, V domains shown)
VH: QVQLVQSGAEVKKPGASVKVSCKASGNTFTNYWMHWIRQAPGQGLEWMGYINPNTGYTDFNQKFKDRVTLTADKSTSTAYMELSSLRSEDTAVYYCTLQLGRNFDYWGQGTTVTVSS
VL: B8 VL with Y34S, S35T, M37I, F40Y, H54Y, A55S, Q93H, V98I, W100Y
B10: humanized anti-human MASP-2 monoclonal antibody 124-Hu (antibody, human IgG4 S228P, kappa, V domains shown)
VH: QVQLQESGPGLVKPSQTLSLTCTVSGYSITSDYAWNWIRQPPGKGLEWMGYISYSGRTSYNPSLKSRLTISRDTSKNQFSLKLSSVTAADTAVYYCARHYGDFWGQGTTVTVSS
VL: DIQMTQSPSSLSASVGDRVTITCKASQNVDTNVAWYQQKPGKAPKLLIYSASYRYSGVPSRFSGSGSGTDFTLTISSLQPEDFATYYCQQYNSYPSTFGQGTKLEIKR
B11: humanized anti-human MASP-2 monoclonal antibody 100-Hu (antibody, human IgG4 S228P, kappa, V domains shown)
VH: B7 VH with D1Q, L11V, R18L, K19R, E42G, F80Y, T84N, S88A, I93V, L112V
VL: EIVLTQSPATLSLSPGERATLSCRASQSVSSSSYRYIHWYQQKPGQAPRLLIYYASNLESGIPARFSGSGSGTDFTLTISSLEPEDFAVYYCQHSWETPWTFGQGTKLEIKR

For the first test, the target named is Fc-hMASP-2A-CCS (human) [IgG part: P01857]. The test can be described thus: ELISA, plate coated with 1 ug/mL Fc-hMASP-2A-CCS.
Fc-hMASP-2A-CCS (human) [IgG part: P01857], sequence (P01857 other isoform, or with tags, fused parts or gaps limits assumed, form in doubt): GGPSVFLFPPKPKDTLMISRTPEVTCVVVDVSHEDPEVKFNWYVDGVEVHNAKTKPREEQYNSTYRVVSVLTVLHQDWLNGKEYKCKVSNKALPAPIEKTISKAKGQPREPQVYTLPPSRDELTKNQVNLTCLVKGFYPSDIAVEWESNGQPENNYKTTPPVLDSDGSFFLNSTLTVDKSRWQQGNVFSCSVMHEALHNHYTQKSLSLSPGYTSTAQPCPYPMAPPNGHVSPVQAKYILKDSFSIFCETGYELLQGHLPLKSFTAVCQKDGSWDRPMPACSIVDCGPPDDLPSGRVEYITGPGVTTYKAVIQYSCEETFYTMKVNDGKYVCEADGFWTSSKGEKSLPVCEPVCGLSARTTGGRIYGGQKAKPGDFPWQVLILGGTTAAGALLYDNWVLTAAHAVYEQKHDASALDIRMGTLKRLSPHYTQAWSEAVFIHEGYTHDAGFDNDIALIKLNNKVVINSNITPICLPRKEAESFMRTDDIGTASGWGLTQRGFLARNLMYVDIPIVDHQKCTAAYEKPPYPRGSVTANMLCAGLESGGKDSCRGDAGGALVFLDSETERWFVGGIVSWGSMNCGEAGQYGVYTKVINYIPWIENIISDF
With B1, the EC50 is 0.16 nM.
Same read-out and setting: to B2 belongs 0.182 nM; to B3, 0.151 nM; to B4, 0.161 nM.
Molecule B5 displayed an EC50 of 0.143 nM.
On the same count and under the same terms, the same measure for B6: 0.149 nM; for B7: 0.173 nM.

The target is the same in another test. The test can be described thus: ELISA according to Example 5, plate coated with Fc-hMASP-2A-CCS.
In turn, B8 had an EC50 of 0.246 nM.
The same measure, in the same setting: to B9 belongs 0.26 nM; to B10, 0.25 nM; to B11, 0.297 nM.

In the next test the target is MASP-2-CCS-Flag (human) (UniProt O00187). The test can be described thus: SPR, Biacore T200, antibody captured on Protein A chip, MASP-2-CCS-Flag as analyte.
MASP-2-CCS-Flag (human), sequence (O00187 other isoform, or with tags, fused parts or gaps limits assumed, form in doubt): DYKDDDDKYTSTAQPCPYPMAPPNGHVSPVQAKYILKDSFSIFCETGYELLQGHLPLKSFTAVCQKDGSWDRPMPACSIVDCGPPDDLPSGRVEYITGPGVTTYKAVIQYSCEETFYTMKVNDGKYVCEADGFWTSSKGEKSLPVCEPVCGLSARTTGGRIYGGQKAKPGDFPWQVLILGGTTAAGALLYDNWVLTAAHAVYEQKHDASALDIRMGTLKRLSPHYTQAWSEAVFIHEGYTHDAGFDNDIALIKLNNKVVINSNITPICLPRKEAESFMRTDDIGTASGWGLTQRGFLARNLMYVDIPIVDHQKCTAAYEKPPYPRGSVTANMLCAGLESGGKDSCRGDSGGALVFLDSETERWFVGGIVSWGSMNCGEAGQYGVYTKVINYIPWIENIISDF
In turn, B8 came in with a Kd of 0.148 nM, a fold affinity against the reference antibody Narsoplimab of 60 times, a koff of 6.33e-05 s⁻¹ and a kon of 428000 M⁻¹ s⁻¹.
In turn, B9 had a Kd of 0.998 nM, a koff of 0.000589 s⁻¹ and a kon of 590000 M⁻¹ s⁻¹.
In the case of B10, the Kd stood at 0.35 nM, the fold affinity against the reference antibody Narsoplimab was 25 times, the koff was found to be 0.000582 s⁻¹ and the kon stood at 1.66e+06 M⁻¹ s⁻¹.
As to B11, the Kd came out at 0.701 nM, the koff turned out to be 0.000298 s⁻¹ and the kon was determined as 428000 M⁻¹ s⁻¹.

The values are drawn from patent US20240043563A1.
